{"source": "paper PMC3393671", "key": {"[1]": {"target": "ROP5 of T. gondii strain RH-YFP (isoforms not told apart) (UniProt F2YGR7)", "sequence (F2YGR7 25-549)": "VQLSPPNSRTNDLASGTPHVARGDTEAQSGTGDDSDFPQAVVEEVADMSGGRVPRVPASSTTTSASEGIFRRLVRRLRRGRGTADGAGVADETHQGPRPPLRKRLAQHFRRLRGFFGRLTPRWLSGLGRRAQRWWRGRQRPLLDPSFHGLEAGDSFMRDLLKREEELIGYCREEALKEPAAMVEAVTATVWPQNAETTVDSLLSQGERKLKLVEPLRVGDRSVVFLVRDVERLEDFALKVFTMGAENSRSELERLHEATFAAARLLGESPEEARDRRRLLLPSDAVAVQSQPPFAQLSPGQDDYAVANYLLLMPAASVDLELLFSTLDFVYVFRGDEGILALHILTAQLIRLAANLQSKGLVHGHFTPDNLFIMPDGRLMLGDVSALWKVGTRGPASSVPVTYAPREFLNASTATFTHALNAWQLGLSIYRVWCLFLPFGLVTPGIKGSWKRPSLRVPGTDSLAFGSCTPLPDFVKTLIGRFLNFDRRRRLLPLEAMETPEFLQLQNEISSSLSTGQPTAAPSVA", "assay": "pull-down (quantitated Western blot)", "conditions": "25 µg protein/100 µl 1:1 bead suspension; RH-YFP strain T. gondii lysates; 3E2 antibody (anti-ROP5); GST signal subtracted; parent: est. 100; read off a plot"}, "GST-Irga6-D164A (mouse)": {"target": "GST-Irga6-D164A (mouse) (UniProt Q9QZ85)", "sequence (Q9QZ85 1-411 D164A)": "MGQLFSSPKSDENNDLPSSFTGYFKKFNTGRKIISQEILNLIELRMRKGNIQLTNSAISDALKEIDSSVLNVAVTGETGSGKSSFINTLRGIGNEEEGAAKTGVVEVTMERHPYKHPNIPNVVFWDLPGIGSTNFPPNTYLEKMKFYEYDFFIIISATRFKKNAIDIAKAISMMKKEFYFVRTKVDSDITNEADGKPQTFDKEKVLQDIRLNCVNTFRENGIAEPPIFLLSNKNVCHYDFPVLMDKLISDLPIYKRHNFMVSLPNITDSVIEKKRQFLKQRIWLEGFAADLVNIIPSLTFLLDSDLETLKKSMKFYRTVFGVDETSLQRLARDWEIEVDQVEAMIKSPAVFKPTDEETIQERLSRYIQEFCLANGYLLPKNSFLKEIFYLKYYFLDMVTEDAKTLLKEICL", "assay": "pull-down; GST-IRG fusion (25 or 50 µg per 100 µl 1:1 bead suspension) on Glutathione Sepharose 4B; postnuclear NP-40 lysate of RH-YFP T. gondii; o/n at 4°C; with or without 1 mM GDP; Western blot with mAb 3E2 (ROP5) or anti-ROP18 antiserum; GST-loaded beads as control"}}, "data": [{"substance": "GST-Irga6 (from UniProt Q9QZ85) D206R", "values": [{"measurement": "percent of parent (% of wild-type intensity)", "setting": "[1]", "result": 68}]}, {"substance": "ROP5 of T. gondii strain RH-YFP (isoforms not told apart) (from UniProt F2YGR7 25-549) (natural protein)", "values": [{"measurement": "percent of ROP5 binding blocked (against wt GST-Irga6)", "setting": "GST-Irga6-D164A (mouse)", "result": "> 95", "unit": "%"}]}]}
